Measurements: PMC11045720

Assays:
[1] = target: Alcohol dehydrogenase from baker's yeast (baker's yeast) (UniProt P00330); assay: mass photometry (native, nMP); samples diluted in their native buffer to 100-400 nM, then drop-diluted to 10-40 nM in a PBS droplet; room temperature (18 °C); triplicates
[2] = target: Alcohol dehydrogenase from baker's yeast (baker's yeast) (UniProt P00330); assay: cross-linking; DSBU at 25:1 to 1000:1 molar excess on 1 mg/mL protein, 45 min at room temperature (20 °C), quenched with Tris HCl; read by denaturing mass photometry (5 min in 5.4 M urea) and SDS-PAGE
[3] = target: Human 20 S proteasome (human); assay: cross-linking; formaldehyde 0.05% to 1% (vol/vol) on 1 mg/mL protein, 20 min at room temperature; read by denaturing mass photometry
[4] = target: Human 20 S proteasome (human); assay: mass photometry (native, nMP); samples diluted in their native buffer to 100-400 nM, then drop-diluted to 10-40 nM in a PBS droplet; room temperature (18 °C); triplicates

Row | percent of detected species that are monomers (nMP) [1] [%] | stoichiometry N [1] | stoichiometry N [2] | stoichiometry N [3] | percent of detected species that are monomers (nMP) [4] [%] | stoichiometry N [4] | Substance
1 | 46 | 4 | 4 | – | – | – | Alcohol dehydrogenase from baker's yeast (from UniProt P00330 1-348) (enzyme)
2 | – | – | – | 28 | 51 | 28 | Human 20 S proteasome (complex)
